Measured values published in patent publication US20190127444A1 (NEW YORK UNIVERSITY, published 2019).

Experiments:
[1] = biological target: T1, LukAB toxoid variant (LukA E323A), recombinant polyhistidine-tagged (S. aureus, UniProt Q2FFA2 28-351; P21224 30-338); assay: BLI, FN3 protein on streptavidin pins, LukAB in solution
T1 sequence 1: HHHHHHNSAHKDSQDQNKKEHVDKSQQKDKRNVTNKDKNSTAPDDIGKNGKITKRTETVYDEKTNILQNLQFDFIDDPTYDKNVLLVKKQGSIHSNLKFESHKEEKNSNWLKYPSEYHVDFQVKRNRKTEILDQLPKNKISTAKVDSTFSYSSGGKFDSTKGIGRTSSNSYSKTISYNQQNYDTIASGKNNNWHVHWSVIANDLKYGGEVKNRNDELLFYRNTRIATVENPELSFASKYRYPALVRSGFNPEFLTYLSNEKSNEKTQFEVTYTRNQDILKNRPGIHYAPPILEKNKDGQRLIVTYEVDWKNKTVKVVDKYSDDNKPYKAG
T1 sequence 2: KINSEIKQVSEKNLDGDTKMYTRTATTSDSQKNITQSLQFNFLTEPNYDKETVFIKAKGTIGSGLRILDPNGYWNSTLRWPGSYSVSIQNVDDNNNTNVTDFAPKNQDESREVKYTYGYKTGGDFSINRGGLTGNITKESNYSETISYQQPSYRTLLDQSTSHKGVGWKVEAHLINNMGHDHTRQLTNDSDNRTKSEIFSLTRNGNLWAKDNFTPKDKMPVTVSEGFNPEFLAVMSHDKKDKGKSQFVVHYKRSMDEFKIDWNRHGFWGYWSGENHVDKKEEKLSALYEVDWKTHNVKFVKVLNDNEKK

[2] = biological target: T1, LukAB toxoid variant (LukA E323A), …; assay: SPR (Biacore T200)
[3] = biological target: T1, LukAB toxoid variant (LukA E323A), …; assay: SPR (Biacore T200), single cycle kinetics, 1:1 model
TD peptide = assay: ELISA, peptide captured on streptavidin
[4] = biological target: T1, LukAB toxoid variant (LukA E323A), …; assay: BLI, FN3 protein on streptavidin pins, LukAB toxoid at 10 ug/mL
[5] = biological target: T2, LukE, recombinant parental form with amino-terminal poly-histidine and streptavidin binding sequences (S. aureus); assay: BLI, biotinylated LukE on streptavidin pins, Luk26 FN3 at 10 ug/mL
T2 chain: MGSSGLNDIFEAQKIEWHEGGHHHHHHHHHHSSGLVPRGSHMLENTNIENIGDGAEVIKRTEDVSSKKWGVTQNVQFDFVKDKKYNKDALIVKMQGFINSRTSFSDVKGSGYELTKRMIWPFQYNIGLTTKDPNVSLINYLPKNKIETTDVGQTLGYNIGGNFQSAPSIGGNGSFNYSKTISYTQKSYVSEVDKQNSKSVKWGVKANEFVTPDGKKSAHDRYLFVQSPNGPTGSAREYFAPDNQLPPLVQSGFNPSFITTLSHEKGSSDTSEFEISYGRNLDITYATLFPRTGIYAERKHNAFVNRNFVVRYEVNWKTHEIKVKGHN

[6] = biological target: T1, LukAB toxoid variant (LukA E323A), …; assay: ELISA and neutralisation assay
[7] = biological target: T3, recombinant Protein A (ProSpec-TanyTechnoGene Ltd.), biotinylated (S. aureus, UniProt P38507 37-327); assay: ELISA, biotinylated Protein A on streptavidin plate
T3 construct: also called SpA
Protocol: Characterization of Protein A binding was determined by ELISA. Briefly, plates were coated with streptavidin (5 μg/mL in PBS, 50 μL per well) and incubated overnight at 4° C. Plates were washed three times with ELISA wash buffer (0.15M NaCl, 0.02% Tween-20) and then coated with biotinylated Protein A at 2 μg/mL (50 L per well) in PBS for one hour at room temperature. Plates were then washed three times with ELISA wash buffer and then blocked with ELISA blocking buffer (3% BSA in PBS, 200 μL per well). Test articles were then added in a 3-fold dilution series starting at 10 μg/mL and the plates incubated at room temperature for one hour. Plates were then washed three times with ELISA wash buffer and 50 mL per well of HRP-conjugated goat anti-human kappa light chain (Millipore AP502P) added at a 1:15,000 dilution in 3% BSA in PBS and the plates incubated for one hour at room temperature. Plates were then washed five times with ELISA wash buffer and bound HRP detected using the 3,3′,5,5′-Tetramethylbenzidine (TMB; Fitzgerald) as a chromogenic substrate.

[8] = biological target: T4, LukE, recombinant protein used for HDX mapping (Staphylococcus aureus, UniProt Q2FXB0 24-306); assay: HDX-MS
T4 construct: also called LukE (HDX)
T4 chain: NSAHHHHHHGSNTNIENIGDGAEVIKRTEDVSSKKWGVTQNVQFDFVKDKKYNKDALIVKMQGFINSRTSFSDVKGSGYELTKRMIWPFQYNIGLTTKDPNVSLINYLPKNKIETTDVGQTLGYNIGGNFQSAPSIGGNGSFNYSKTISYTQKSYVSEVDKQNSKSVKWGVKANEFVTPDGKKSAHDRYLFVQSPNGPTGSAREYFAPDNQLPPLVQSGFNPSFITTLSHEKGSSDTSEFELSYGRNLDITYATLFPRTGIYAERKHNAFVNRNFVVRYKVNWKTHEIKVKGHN

B1: TENCON-His-SA (designed binder)
chain: MLPAPKNLVVSRVTEDSARLSWTAPDAAFDSFLIQYQESEKVGEAIVLTVPGSERSYDLTGLKPGTEYTVSIYGVKGGHRSNPLSAIFTTGGHHHHHHGGGLNDIFEAQKIEWHE
notes: also called parental control FN3 domain protein
binding result [1]: no binding (tested: 10 ug/mL)

B2: mAb 5133 PRASA A6 HC-L4-E-L4-AB (Table 1 Construct 11) (bispecific antibody)
heavy: EVQLVETGGGLVKPGGSLRLSCSASRFSFRDYYMTWIRQAPGKGPEWVSHISGSGSTIYYADSVRGRFTISRDNAKSSLYLQMDSLQADDTAVYYCARGGRATSYYWVHWGPGTLVTVSSASTKGPSVFPLAPSSKSTSGGTAALGCLVKDYFPEPVTVSWNSGALTSGVHTFPAVLQSSGLYSLSSVVTVPSSSLGTQTYICNVNHKPSNTKVDKKVEPKSCDKTHTCPPCPAPPVAGPDVFLFPPKPKDTLMISRTPEVTCVVVDVSHEDPEVKFNWYVDGVEVHNAKTKPREEQYNSTYRVVSVLTVLHQDWLNGKEYKCKVSNAALPAPIAKTISKAKGQPREPQVYTLPPSRDELTKNQVSLTCLVKGFYPSDIAVEWESNGQPENNYKTTPPVLDSDGSFFLYSKLTVDKSRWQQGNVFSCSVMHEALHNRFTQKSLSLSPGKGGGGSGGGGSGGGGSGGGGSMLPAPKNLVVSRVTEDSARLSWTAPDAAFDSFHIEYAEPWVWGEAIVLTVPGSERSYDLTGLKPGTEYVVFIGGVKGGHNSTPLSAIFTTGGGGSGGGGSGGGGSGGGGSMLPAPKNLVVSRVTEDSARLSWTAPDAAFDSFWITYEEKFYRGEAIVLTVPGSERSYDLTGLKPGTEYKVWIVGVKGGQGSWPLSAIFTT
light: EIVLTQSPATLSLSPGERATLSCRASQSVSGYLGWYQQKPGQAPRLLIYGASSRATGIPDRFSGSGSGTDFTLTISRLEPEDFAVYYCQQYGSSPLTFGGGTKLEIKRTVAAPSVFIFPPSDEQLKSGTASVVCLLNNFYPREAKVQWKVDNALQSGNSQESVTEQDSKDSTYSLSSTLTLSKADYEKHKVYACEVTHQGLSSPVTKSFNRGEC
notes: also called CR5133 PRASA A6 HC-L4-E-L4-AB; 4×4 variant
fold higher binding affinity than Construct 6 [2]: ~6 fold | Kd [3]: 0.012 nM

B3: mAb 5133 (CR5133, IgG1 wt; Table 1 Construct 1) (antibody)
heavy: not shown
light: EIVLTQSPATLSLSPGERATLSCRASQSVSGYLGWYQQKPGQAPRLLIYGASSRATGIPDRFSGSGSGTDFTLTISRLEPEDFAVYYCQQYGSSPLTFGGGTKLEIKRTVAAPSVFIFPPSDEQLKSGTASVVCLLNNFYPREAKVQWKVDNALQSGNSQESVTEQDSKDSTYSLSSTLTLSKADYEKHKVYACEVTHQGLSSPVTKSFNRGEC
binding result (TD peptide): no binding

B4: Luk17-His-SA (designed binder)
chain: MLPAPKNLVVSRVTEDSARLSWTAPDAAFDSFWITYEEKFYRGEAIVLTVPGSERSYDLTGLKPGTEYKVWIVGVKGGQGSWPLSAIFTTGGHHHHHHGGGLNDIFEAQKIEWHE
binding result [4]: binds

B5: Luk26 FN3 protein with carboxyl-terminal poly-histidine sequence (designed binder)
chain: MLPAPKNLVVSRVTEDSARLSWTAPDAAFDSFHIEYAEPWVWGEAIVLTVPGSERSYDLTGLKPGTEYVVFIGGVKGGHNSTPLSAIFTTGGHHHHHH
binding result [5]: binds

B6: Luk17 LukAB binding FN3 domain (designed binder)
chain: LPAPKNLVVSRVTEDSARLSWTAPDAAFDSFWITYEEKFYRGEAIVLTVPGSERSYDLTGLKPGTEYKVWIVGVKGGQGSWPLSAIFTT
binding result [6]: binds

B7: anti-LTA (Pagibaximab) PRASA A6 (Table 1 Construct 33) (antibody, human IgG1, kappa)
heavy: EVMLVESGGGLVQPKGSLKLSCAASGFTFNNYAMNWVRQAPGKGLEWVARIRSKSNNYATFYADSVKDRFTISRDDSQSMLYLQMNNLKTEDTAMYYCVRRGASGIDYAMDYWGQGTSLTVSSASTKGPSVFPLAPSSKSTSGGTAALGCLVKDYFPEPVTVSWNSGALTSGVHTFPAVLQSSGLYSLSSVVTVPSSSLGTQTYICNVNHKPSNTKVDKKVEPKSCDKTHTCPPCPAPPVAGPDVFLFPPKPKDTLMISRTPEVTCVVVDVSHEDPEVKFNWYVDGVEVHNAKTKPREEQYNSTYRVVSVLTVLHQDWLNGKEYKCKVSNAALPAPIAKTISKAKGQPREPQVYTLPPSRDELTKNQVSLTCLVKGFYPSDIAVEWESNGQPENNYKTTPPVLDSDGSFFLYSKLTVDKSRWQQGNVFSCSVMHEALHNRFTQKSLSLSPGK
light: DIVLSQSPAILSASPGEKVTMTCRASSSVNYMHWYQQKPGSSPKPWISATSNLASGVPARFSGSGSGTSYSLTISRVEAEDAATYYCQQWSSNPPTFGGGTMLEIKRTVAAPSVFIFPPSDEQLKSGTASVVCLLNNFYPREAKVQWKVDNALQSGNSQESVTEQDSKDSTYSLSSTLTLSKADYEKHKVYACEVTHQGLSSPVTKSFNRGEC
notes: also called LTA PRASA A6; PRASA A6 variant of pagibaximab
binding result [7]: no binding (tested: 10 µg/mL)

B8: Luk26 LukE binding FN3 domain (designed binder)
chain: LPAPKNLVVSRVTEDSARLSWTAPDAAFDSFHIEYAEPWVWGEAIVLTVPGSERSYDLTGLKPGTEYVVFIGGVKGGHNSTPLSAIFTT
binding result [8]: binds
